T1: INTU, Q9ULD6
T1 sequence (Q9ULD6 180-273, limits assumed, looked up): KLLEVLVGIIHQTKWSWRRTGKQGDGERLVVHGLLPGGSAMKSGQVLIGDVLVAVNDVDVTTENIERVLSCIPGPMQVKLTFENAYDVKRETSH

T2: MPDZ_6, O75970
T2 sequence (O75970 1003-1099, limits assumed, looked up): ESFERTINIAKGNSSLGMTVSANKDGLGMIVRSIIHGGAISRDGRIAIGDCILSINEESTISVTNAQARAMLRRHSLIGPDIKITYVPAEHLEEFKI

T3: MPDZ_7, O75970
T3 sequence (O75970 1146-1253, limits assumed, looked up): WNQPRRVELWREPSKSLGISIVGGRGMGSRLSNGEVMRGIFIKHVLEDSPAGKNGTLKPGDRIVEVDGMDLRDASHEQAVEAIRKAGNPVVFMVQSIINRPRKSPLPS

T4: NHERF1_2, O14745
T4 sequence (O14745 149-244, limits assumed, looked up): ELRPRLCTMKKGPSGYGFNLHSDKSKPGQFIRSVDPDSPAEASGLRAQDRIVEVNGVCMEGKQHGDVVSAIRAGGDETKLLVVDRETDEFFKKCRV

T5: PARD6B, Q9BYG5
T5 sequence (Q9BYG5 152-260, limits assumed, looked up): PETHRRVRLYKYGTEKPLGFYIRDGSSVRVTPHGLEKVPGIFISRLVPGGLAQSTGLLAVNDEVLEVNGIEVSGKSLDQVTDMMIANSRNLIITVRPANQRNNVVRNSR

T6: PDZD2_5, O15018
T6 sequence (O15018 2617-2716, limits assumed, looked up): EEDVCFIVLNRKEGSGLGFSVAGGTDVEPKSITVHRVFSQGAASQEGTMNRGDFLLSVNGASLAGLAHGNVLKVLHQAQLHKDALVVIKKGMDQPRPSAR

T7: PTPN13_4, Q12923
T7 sequence (Q12923 1783-1878, limits assumed, looked up): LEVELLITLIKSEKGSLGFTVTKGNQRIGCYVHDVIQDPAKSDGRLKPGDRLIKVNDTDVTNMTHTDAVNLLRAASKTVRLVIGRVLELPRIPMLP

T8: PTPN4, P29074
T8 sequence (P29074 512-599, limits assumed, looked up): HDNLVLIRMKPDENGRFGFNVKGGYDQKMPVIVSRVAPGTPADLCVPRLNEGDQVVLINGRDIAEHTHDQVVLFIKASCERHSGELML

T9: SHANK2, Q9UPX8
T9 sequence (Q9UPX8 621-730, limits assumed, looked up): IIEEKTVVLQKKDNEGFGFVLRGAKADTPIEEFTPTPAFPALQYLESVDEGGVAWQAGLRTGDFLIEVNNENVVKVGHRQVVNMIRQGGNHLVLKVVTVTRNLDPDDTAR

T10: SHROOM3, Q8TF72
T10 sequence (Q8TF72 20-120, limits assumed, looked up): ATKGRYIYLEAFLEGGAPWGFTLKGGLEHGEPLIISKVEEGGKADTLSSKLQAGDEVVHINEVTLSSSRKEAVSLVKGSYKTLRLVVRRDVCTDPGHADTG

T11: USH1C_2, Q9Y6N9
T11 sequence (Q9Y6N9 206-303, limits assumed, looked up): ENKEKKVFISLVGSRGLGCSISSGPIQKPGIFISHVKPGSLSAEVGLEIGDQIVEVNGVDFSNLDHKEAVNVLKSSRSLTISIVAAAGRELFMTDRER

T12: USH1C_3, Q9Y6N9
T12 sequence (Q9Y6N9 447-547, limits assumed, looked up): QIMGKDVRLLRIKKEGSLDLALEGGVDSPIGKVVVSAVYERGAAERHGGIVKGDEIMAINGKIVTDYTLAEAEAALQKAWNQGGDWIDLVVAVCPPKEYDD


target: CNKSR3, Q6P9H4; assay: holdup assay; design: key: below the threshold = too weak to quantify, mostly under pKd 3.1 to 4; details: plain residues with an end cap or a label only (N-terminal biotin on a linker: ttds)
Sequence (Q6P9H4 203-303): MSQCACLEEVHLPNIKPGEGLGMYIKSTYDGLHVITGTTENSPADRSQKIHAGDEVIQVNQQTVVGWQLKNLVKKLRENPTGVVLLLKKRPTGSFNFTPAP

Binder | pKd
RLPKIKETTV [FRMPD4, Q14CM0] | 4.24
RLQRRRETQV [HPV18-E6, P06463] | 4.1

target: DLG2_1, Q15700; assay: holdup assay; design: key: below the threshold = too weak to quantify, mostly under pKd 3.1 to 4; details: plain residues with an end cap or a label only (N-terminal biotin on a linker: ttds)

Binder | pKd
RLPKIKETTV [FRMPD4, Q14CM0] | 5.32
RLQRRRETQV [HPV18-E6, P06463] | 5.11

target: IL16_2, Q14005; assay: holdup assay; design: key: below the threshold = too weak to quantify, mostly under pKd 3.1 to 4; details: plain residues with an end cap or a label only (N-terminal biotin on a linker: ttds)
Sequence (Q14005 350-450): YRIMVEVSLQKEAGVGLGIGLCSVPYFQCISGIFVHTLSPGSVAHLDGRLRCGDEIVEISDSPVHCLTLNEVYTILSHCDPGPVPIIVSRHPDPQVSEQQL

Binder | pKd
RLPKIKETTV [FRMPD4, Q14CM0] | below the threshold
RLQRRRETQV [HPV18-E6, P06463] | below the threshold

target: T1, INTU, Q9ULD6; assay: holdup assay; design: key: below the threshold = too weak to quantify, mostly under pKd 3.1 to 4; details: plain residues with an end cap or a label only (N-terminal biotin on a linker: ttds)

Binder | pKd
RLPKIKETTV [FRMPD4, Q14CM0] | below the threshold
RLQRRRETQV [HPV18-E6, P06463] | below the threshold

target: MAGI1_3, Q96QZ7; assay: holdup assay; design: key: below the threshold = too weak to quantify, mostly under pKd 3.1 to 4; details: plain residues with an end cap or a label only (N-terminal biotin on a linker: ttds)
Sequence (Q96QZ7 638-725): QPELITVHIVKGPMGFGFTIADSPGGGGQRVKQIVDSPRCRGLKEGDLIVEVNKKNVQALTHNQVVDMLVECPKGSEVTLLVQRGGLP

Binder | pKd
RLPKIKETTV [FRMPD4, Q14CM0] | 4.82
RLQRRRETQV [HPV18-E6, P06463] | below the threshold

target: MAGI1_4, Q96QZ7; assay: holdup assay; design: key: below the threshold = too weak to quantify, mostly under pKd 3.1 to 4; details: plain residues with an end cap or a label only (N-terminal biotin on a linker: ttds)
Sequence (Q96QZ7 other isoform, or with tags, fused parts or gaps): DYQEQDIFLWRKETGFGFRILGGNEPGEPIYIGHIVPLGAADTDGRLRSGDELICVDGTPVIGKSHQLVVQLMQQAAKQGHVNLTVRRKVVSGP

Binder | pKd
RLPKIKETTV [FRMPD4, Q14CM0] | below the threshold
RLQRRRETQV [HPV18-E6, P06463] | 4.28

target: MAGI1_6, Q96QZ7; assay: holdup assay; design: key: below the threshold = too weak to quantify, mostly under pKd 3.1 to 4; details: plain residues with an end cap or a label only (N-terminal biotin on a linker: ttds)
Sequence (Q96QZ7 1146-1238): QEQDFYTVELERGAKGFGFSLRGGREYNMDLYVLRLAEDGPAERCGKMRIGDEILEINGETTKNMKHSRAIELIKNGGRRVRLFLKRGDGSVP

Binder | pKd
RLPKIKETTV [FRMPD4, Q14CM0] | 4.57
RLQRRRETQV [HPV18-E6, P06463] | below the threshold

target: MAGI3_3, Q5TCQ9; assay: holdup assay; design: key: below the threshold = too weak to quantify, mostly under pKd 3.1 to 4; details: plain residues with an end cap or a label only (N-terminal biotin on a linker: ttds)
Sequence (Q5TCQ9 572-655): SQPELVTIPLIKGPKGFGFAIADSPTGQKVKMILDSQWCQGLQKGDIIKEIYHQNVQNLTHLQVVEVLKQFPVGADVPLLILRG

Binder | pKd
RLPKIKETTV [FRMPD4, Q14CM0] | below the threshold
RLQRRRETQV [HPV18-E6, P06463] | below the threshold

target: T2, MPDZ_6, O75970; assay: holdup assay; design: key: below the threshold = too weak to quantify, mostly under pKd 3.1 to 4; details: plain residues with an end cap or a label only (N-terminal biotin on a linker: ttds)

Binder | pKd
RLPKIKETTV [FRMPD4, Q14CM0] | below the threshold
RLQRRRETQV [HPV18-E6, P06463] | below the threshold

target: T3, MPDZ_7, O75970; assay: holdup assay; design: key: below the threshold = too weak to quantify, mostly under pKd 3.1 to 4; details: plain residues with an end cap or a label only (N-terminal biotin on a linker: ttds)

Binder | pKd
RLPKIKETTV [FRMPD4, Q14CM0] | below the threshold
RLQRRRETQV [HPV18-E6, P06463] | below the threshold

target: T4, NHERF1_2, O14745; assay: holdup assay; design: key: below the threshold = too weak to quantify, mostly under pKd 3.1 to 4; details: plain residues with an end cap or a label only (N-terminal biotin on a linker: ttds)

Binder | pKd
RLPKIKETTV [FRMPD4, Q14CM0] | below the threshold
RLQRRRETQV [HPV18-E6, P06463] | below the threshold

target: NHERF2_1, Q15599; assay: holdup assay; design: key: below the threshold = too weak to quantify, mostly under pKd 3.1 to 4; details: plain residues with an end cap or a label only (N-terminal biotin on a linker: ttds)
Sequence (Q15599 9-91): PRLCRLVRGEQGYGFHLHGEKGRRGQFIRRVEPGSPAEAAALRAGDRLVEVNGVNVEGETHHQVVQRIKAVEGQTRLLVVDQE

Binder | pKd
RLPKIKETTV [FRMPD4, Q14CM0] | below the threshold
RLQRRRETQV [HPV18-E6, P06463] | below the threshold

target: PARD3B_2, Q8TEW8; assay: holdup assay; design: key: below the threshold = too weak to quantify, mostly under pKd 3.1 to 4; details: plain residues with an end cap or a label only (N-terminal biotin on a linker: ttds)
Sequence (Q8TEW8 376-471): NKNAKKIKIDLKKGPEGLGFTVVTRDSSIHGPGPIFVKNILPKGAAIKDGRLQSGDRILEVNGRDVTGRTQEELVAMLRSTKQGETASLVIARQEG

Binder | pKd
RLPKIKETTV [FRMPD4, Q14CM0] | below the threshold
RLQRRRETQV [HPV18-E6, P06463] | below the threshold

target: T5, PARD6B, Q9BYG5; assay: holdup assay; design: key: below the threshold = too weak to quantify, mostly under pKd 3.1 to 4; details: plain residues with an end cap or a label only (N-terminal biotin on a linker: ttds)

Binder | pKd
RLPKIKETTV [FRMPD4, Q14CM0] | below the threshold
RLQRRRETQV [HPV18-E6, P06463] | below the threshold

target: PDLIM4, P50479; assay: holdup assay; design: key: below the threshold = too weak to quantify, mostly under pKd 3.1 to 4; details: plain residues with an end cap or a label only (N-terminal biotin on a linker: ttds)
Sequence (P50479 1-83): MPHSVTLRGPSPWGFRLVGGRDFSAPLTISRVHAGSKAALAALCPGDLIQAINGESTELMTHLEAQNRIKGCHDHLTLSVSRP

Binder | pKd
RLPKIKETTV [FRMPD4, Q14CM0] | below the threshold
RLQRRRETQV [HPV18-E6, P06463] | below the threshold

target: T6, PDZD2_5, O15018; assay: holdup assay; design: key: below the threshold = too weak to quantify, mostly under pKd 3.1 to 4; details: plain residues with an end cap or a label only (N-terminal biotin on a linker: ttds)

Binder | pKd
RLPKIKETTV [FRMPD4, Q14CM0] | below the threshold
RLQRRRETQV [HPV18-E6, P06463] | below the threshold

target: T7, PTPN13_4, Q12923; assay: holdup assay; design: key: below the threshold = too weak to quantify, mostly under pKd 3.1 to 4; details: plain residues with an end cap or a label only (N-terminal biotin on a linker: ttds)

Binder | pKd
RLPKIKETTV [FRMPD4, Q14CM0] | below the threshold
RLQRRRETQV [HPV18-E6, P06463] | 4.03

target: T8, PTPN4, P29074; assay: holdup assay; design: key: below the threshold = too weak to quantify, mostly under pKd 3.1 to 4; details: plain residues with an end cap or a label only (N-terminal biotin on a linker: ttds)

Binder | pKd
RLPKIKETTV [FRMPD4, Q14CM0] | 5.14
RLQRRRETQV [HPV18-E6, P06463] | 4.62

target: RIMS1, Q86UR5; assay: holdup assay; design: key: below the threshold = too weak to quantify, mostly under pKd 3.1 to 4; details: plain residues with an end cap or a label only (N-terminal biotin on a linker: ttds)
Sequence (Q86UR5 584-692): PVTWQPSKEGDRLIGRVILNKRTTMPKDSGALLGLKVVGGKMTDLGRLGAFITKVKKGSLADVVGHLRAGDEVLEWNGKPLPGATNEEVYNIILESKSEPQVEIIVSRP

Binder | pKd
RLPKIKETTV [FRMPD4, Q14CM0] | below the threshold
RLQRRRETQV [HPV18-E6, P06463] | below the threshold

target: RIMS2, Q9UQ26; assay: holdup assay; design: key: below the threshold = too weak to quantify, mostly under pKd 3.1 to 4; details: plain residues with an end cap or a label only (N-terminal biotin on a linker: ttds)
Sequence (Q9UQ26 637-758): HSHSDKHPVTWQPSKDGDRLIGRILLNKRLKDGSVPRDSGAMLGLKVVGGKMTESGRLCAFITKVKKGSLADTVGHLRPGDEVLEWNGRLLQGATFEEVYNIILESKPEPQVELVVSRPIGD

Binder | pKd
RLPKIKETTV [FRMPD4, Q14CM0] | below the threshold
RLQRRRETQV [HPV18-E6, P06463] | below the threshold

target: SCRIB_4, Q14160; assay: holdup assay; design: key: below the threshold = too weak to quantify, mostly under pKd 3.1 to 4; details: plain residues with an end cap or a label only (N-terminal biotin on a linker: ttds)
Sequence (Q14160 1095-1204): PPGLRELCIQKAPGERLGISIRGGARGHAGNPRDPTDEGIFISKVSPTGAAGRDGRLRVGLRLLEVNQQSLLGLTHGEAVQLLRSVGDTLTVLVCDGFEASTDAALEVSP

Binder | pKd
RLPKIKETTV [FRMPD4, Q14CM0] | 4.85
RLQRRRETQV [HPV18-E6, P06463] | below the threshold

target: T9, SHANK2, Q9UPX8; assay: holdup assay; design: key: below the threshold = too weak to quantify, mostly under pKd 3.1 to 4; details: plain residues with an end cap or a label only (N-terminal biotin on a linker: ttds)

Binder | pKd
RLPKIKETTV [FRMPD4, Q14CM0] | below the threshold
RLQRRRETQV [HPV18-E6, P06463] | below the threshold

target: T10, SHROOM3, Q8TF72; assay: holdup assay; design: key: below the threshold = too weak to quantify, mostly under pKd 3.1 to 4; details: plain residues with an end cap or a label only (N-terminal biotin on a linker: ttds)

Binder | pKd
RLPKIKETTV [FRMPD4, Q14CM0] | below the threshold
RLQRRRETQV [HPV18-E6, P06463] | below the threshold

target: TJP1_1, Q07157; assay: holdup assay; design: key: below the threshold = too weak to quantify, mostly under pKd 3.1 to 4; details: plain residues with an end cap or a label only (N-terminal biotin on a linker: ttds)
Sequence (Q07157 18-120): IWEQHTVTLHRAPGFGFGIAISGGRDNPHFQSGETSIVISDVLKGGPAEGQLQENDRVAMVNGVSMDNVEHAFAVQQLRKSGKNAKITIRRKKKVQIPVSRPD

Binder | pKd
RLPKIKETTV [FRMPD4, Q14CM0] | below the threshold
RLQRRRETQV [HPV18-E6, P06463] | below the threshold

target: T11, USH1C_2, Q9Y6N9; assay: holdup assay; design: key: below the threshold = too weak to quantify, mostly under pKd 3.1 to 4; details: plain residues with an end cap or a label only (N-terminal biotin on a linker: ttds)

Binder | pKd
RLPKIKETTV [FRMPD4, Q14CM0] | below the threshold
RLQRRRETQV [HPV18-E6, P06463] | below the threshold

target: T12, USH1C_3, Q9Y6N9; assay: holdup assay; design: key: below the threshold = too weak to quantify, mostly under pKd 3.1 to 4; details: plain residues with an end cap or a label only (N-terminal biotin on a linker: ttds)

Binder | pKd
RLPKIKETTV [FRMPD4, Q14CM0] | below the threshold
RLQRRRETQV [HPV18-E6, P06463] | below the threshold

Reference: publication PMC9482650, “Quantitative fragmentomics allow affinity mapping of interactomes” (Nature Communications, 2022)
